Values of other authors in patent publication US5916869A, “Method of treating birds in ovo” (North Carolina State University, priority 1997, dated 1999).

Tested on: sodium-dependent duodenal active transport
Details: sheep, injected

B1: recombinant bovine growth hormone (protein, UniProt P01246 27-217, looked up)
Somatotropin: AFPAMSLSGLFANAVLRAQHLHQLAADTFKEFERTYIPEGQRYSIQNTQVAFCFSETIPAPTGKNEAQQKSDLELLRISLLLIQSWLGPLQFLSRVFTNSLVFGTSDRVYEKLKDLEEGILALMRELEDGTPRAGQILKQTYDKFDTNMRSDDALLKNYGLLSCFRKDLHKTETYLRVMKCRRFGEASCAF
notes: recombinant bovine growth hormone injected into sheep in a cited study
- increase of sodium-dependent duodenal active transport of glucose: approximately 60%
- increase of transport of proline: approximately 30%
